Results reported in patent US20250154283A1 (published 2025).

Key:
[1] = target: T1, biotinylated human VWF cysteine knot (CK) domain construct (human, UniProt P04275 2724-2813, biotinylated in vitro (BirA) on the biotinylation tag; one N-glycan); assay: SPR, scFv captured via anti-SV5, CK domain injected, pH 5.5, apparent Kd;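 note: scFvs from crude yeast supernatants captured on chip-bound anti-SV5 antibody, Kd computed as koff divided by kon, dimeric CK construct likely makes affinity appear higher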
T1 construct: Expressed in HEK293 EBNA cells; disulfide-linked homodimer; also called human VWF CK; human VWF CK domain; not shown: in vitro biotinylation tag, HRV-3C site and 3 VWF residues before the CK domain

[2] = target: T1, biotinylated human VWF cysteine knot …; assay: SPR, scFv captured via anti-SV5, CK domain injected, pH 7.4, apparent Kd;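 note: scFvs from crude yeast supernatants printed on an amine-coupled anti-SV5 lawn, Kd computed as koff over kon, likely overestimating affinity because the CK construct is dimeric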
Description: Briefly, a sensor chip was activated and coupled with an anti-SV5 mouse monoclonal antibody using amine coupling. The soluble scFvs in crude yeast supernatants were printed on the anti-SV5 lawn. […] From the measured association (kₒₙ) and dissociation (koff) rate constants, an apparent equilibrium dissociation constant (Kd=koff/kₒₙ) was estimated. Due to the dimeric state of the CK construct and consequent possibility for simultaneous binding of captured scFv to both monomers in the CK dimer, the SPR setup was expected to overestimate the binding affinity.

[3] = target: T2, biotinylated cynomolgus monkey VWF cysteine knot (CK) domain construct (cynomolgus monkey, biotinylated in vitro (BirA) on the biotinylation tag; one N-glycan); assay: as above
T2 construct: Expressed in HEK293 EBNA cells; disulfide-linked homodimer; also called cyno VWF CK; cyno VWF CK domain; not shown: in vitro biotinylation tag, HRV-3C site and 3 VWF residues before the CK domain
T2 chain: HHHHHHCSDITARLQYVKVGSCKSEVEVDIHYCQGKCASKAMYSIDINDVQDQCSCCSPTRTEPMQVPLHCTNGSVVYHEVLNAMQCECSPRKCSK

[4] = target: T3, biotinylated human VWF cysteine knot (CK) domain construct (human, biotin on the in vitro biotinylation tag (residue not stated); one N-glycan); assay: SPR, scFv captured on anti-SV5, pH 7.4
T3 construct: Disulfide-linked homodimer; also called biotinylated human VWF CK domain; human VWF CK domain construct
T3 chain: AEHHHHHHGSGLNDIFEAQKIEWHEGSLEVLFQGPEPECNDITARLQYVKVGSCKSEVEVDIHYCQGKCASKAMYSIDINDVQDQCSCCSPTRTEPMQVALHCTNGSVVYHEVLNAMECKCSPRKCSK

Binder	Kd [1]	Kd [2]	Kd [3]	binding result [4]
76_Lib4_scFv (scFv, VH-linker-VL; not shown: C-terminal 3xFLAG and SV5 tags) scFv: QVQLQESGPGLVKPSQTLSLTCTVSGVSISNHYWSWIRQPPGKGLEWIGYIDESGSTDYNPSLKSRVTMSVDTSKNQFSLKVNSVTAADTAVYYCARVSWGYYAMDVWGQGTTVTVSSSGGSTITSYNVYYTKLSSSGTEIVMTQSPATLSLSPGERATLSCRASQGVSGHLAWYQQKPGQAPRLLIYETSKRATGIPARFSGSGSGTDFTLTISSLEPEDFAVYYCQQYNDYPLGFGGGTKVEIK	0.366 nM	3.91 nM	1.29 nM	
5662_Lib8_scFv (scFv, VH-linker-VL; not shown: C-terminal 3xFLAG and SV5 tags) scFv: EVQLVESGGGLVQPGRSLRLSCAASGFNFHNYDMHWVRQAPGKGLEWVSAIDISGQSTDYADSVEGRFTISRDNAKNSLYLQMNSLRAEDTAVYYCAREGWYGGVFDYWGQGTLVTVSSSGGSTITSYNVYYTKLSSSGTDIQMTQSPSSLSASVGDRVTITCRASQDIANWLAWYQQKPGKAPKLLIYGASESGVGVPSRFSGSGSGTDFTLTISSLQPEDVATYYCQQSLTMKTFGGGTKVEIK	0.687 nM	4.31 nM	1.36 nM	
4761_Lib8_scFv (scFv, VH-linker-VL; not shown: C-terminal 3xFLAG and SV5 tags) scFv: EVQLVESGGGLVQPGRSLRLSCAASGFTFSSDTMHWVRQAPGKGLEWVSAISSSGDHTDYADSVEGRFTISRDNAKNSLYLQMNSLRAEDTAVYYCAREGLRGYYFDYWGQGTLVTVSSSGGSTITSYNVYYTKLSSSGTDIQMTQSPSSLSASVGDRVTITCRASQGISGHLAWYQQKPGKAPKLLIYAASALQSGVPSRFSGSGSGTDFTLTISSLQPEDVATYYCQQSHSLPWTFGGGTKVEIK	1.33 nM	7.56 nM	2.67 nM	
Lib1_P1_F10_scFv (scFv, VH-linker-VL; not shown: C-terminal 3xFLAG and SV5 tags) scFv: QVQLVQSGAEVKKPGASVKVSCKVSGYTFSSSGIHWVRQAPGKGLEWMGGIFPNFGTAIYAQKFQGRVTMTEDTSTDTAYMELSSLKSEDTAVYYCARESDFWSGSFTNWGQGTLVTVSSSGGSTITSYNVYYTKLSSSGTDIQMTQSPSSVSASVGDRVTITCRASRSIGNWLAWYQQKPGKAPKLLIYDAFNRASGVPSRFSGSGSGTDFTLTISSLQPEDFANYYCQQSYSTLPRYSFGGGTKVEIK	15.3 nM	4.97 nM	1.5 nM	
9312_Lib8_scFv (scFv, VH-linker-VL; not shown: C-terminal 3xFLAG and SV5 tags) scFv: EVQLVESGGGLVQPGRSLRLSCAASGFSLSTYDMHWVRQAPGKGLEWVSAISSSGDTRDYADSVEGRFTISRDNAKNSLYLQMNSLRAEDTAVYYCARAFWGGDAFDIWGQGTMVTVSSSGGSTITSYNVYYTKLSSSGTDIQMTQSPSSLSASVGDRVTITCRASQTIGYWLAWYQQKPGKAPKLLIYGASTLEGGVPSRFSGSGSGTDFTLTISSLQPEDVATYYCQHSYSAPPTFGGGTKVEIK	21.6 nM	6.56 nM	1.8 nM	
Lib6_P3_A4_scFv (scFv, VH-linker-VL; not shown: C-terminal 3xFLAG and SV5 tags) scFv: QVQLVQSGAEVKKPGASVKVSCKVSGDTLSNYAIHWVRQAPGKGLEWMGGINPNAGTTIYAQKFQGRVTMTEDTSTDTAYMELSSLKSEDTAVYYCARDSSSWCPVGYYYYYMDVWGKGTTVTVSSSGGSTITSYNVYYTKLSSSGTDIQMTQSPSSVSASVGDRVTITCRASQSIGDFLAWYQQKPGKAPKLLIYDASHLQTGVPSRFSGSGSGTDFTLTISSLQPEDFANYYCQQTSTIPPTFGGGTKVEIK	0.52 nM	4.97 nM	3.46 nM	
Lib4_P2_D1_scFv (scFv, VH-linker-VL; not shown: C-terminal 3xFLAG and SV5 tags) scFv: QVQLVQSGAEVKKPGASVKVSCKVSGDTLSNYAIHWVRQAPGKGLEWMGGINPNAGTTIYAQKFQGRVTMTEDTSTDTAYMELSSLKSEDTAVYYCARDSSSWCPVGYYYYYMDVWGKGTTVTVSSSGGSTITSYNVYYTKLSSSGTDIQMTQSPSSVSASVGDRVTITCRASQSIGDFLAWYQQKPGKAPKLLIYDASHLQTGVPSRFSGSGSGTDFTLTISSLQPEDFANYYCQQTSTIPPTFGGGTKVEIK	0.984 nM	5.02 nM	0.517 nM	
Lib1_P1_A5_scFv (scFv, VH-linker-VL; not shown: C-terminal 3xFLAG and SV5 tags) scFv: QVQLVQSGAEVKKPGASVKVSCKVSGDTLSNYAIHWVRQAPGKGLEWMGGINPNAGTTIYAQKFQGRVTMTEDTSTDTAYMELSSLKSEDTAVYYCARDSSSWCPVGYYYYYMDVWGKGTTVTVSSSGGSTITSYNVYYTKLSSSGTDIQMTQSPSSVSASVGDRVTITCRASQSIGDFLAWYQQKPGKAPKLLIYDASHLQTGVPSRFSGSGSGTDFTLTISSLQPEDFANYYCQQTSTIPPTFGGGTKVEIK	5.02 nM	6.37 nM	1.74 nM	
Lib1_P1_A9_scFv (scFv, VH-linker-VL; not shown: C-terminal 3xFLAG and SV5 tags) scFv: QVQLVQSGAEVKKPGASVKVSCKVSGDTLSSYGIHWVRQAPGKGLEWMGGSIPSFGTAIYAQKFQGRVTMTEDTSTDTAYMELSSLKSEDTAVYYCTSEGPWLPFFSFDYWGQGTLVTVSSSGGSTITSYNVYYTKLSSSGTDIQMTQSPSSVSASVGDRVTITCRASQGISRNLAWYQQKPGKAPKLLIYKASSLASGVPSRFSGSGSGTDFTLTISSLQPEDFANYYCQQSFSTPVTFGGGTKVEIK	0.018 nM	0.051 nM	0.205 nM	
9301_Lib8_scFv (scFv, not shown: small tags and cut ends) scFv: EVQLVESGGGLVQPGRSLRLSCAASGFNFHNYDMHWVRQAPGKGLEWVSAISGSGYTADYADSVEGRFTISRDNAKNSLYLQMNSLRAEDTAVYYCAKSHSSGWSSAFDIWGQGTMVTVSSSGGSTITSYNVYYTKLSSSGTDIQMTQSPSSLSASVGDRVTITCRASQTIGYWLAWYQQKPGKAPKLLIYDASVPESGVPSRFSGSGSGTDFTLTISSLQPEDVATYYCQQTLSSPWTFGGGTKVEIK				binds
1675_Lib1_scFv (scFv, VH-linker-VL; not shown: C-terminal 3xFLAG and SV5 tags) scFv: QVQLVQSGAEVKKPGASVKVSCKVSGVTLTSSAISWVRQAPGKGLEWMGGITPIFGTPIYAQKFQGRVTMTEDTSTDTAYMELSSLKSEDTAVYYCATDYGYPFWAFDIWGQGTMVTVSSSGGSTITSYNVYYTKLSSSGTDIQMTQSPSSVSASVGDRVTITCRASQGIYSALAWYQQKPGKAPKLLIYESSKRPSGVPSRFSGSGSGTDFTLTISSLQPEDFANYYCEQYASSPPTFGGGTKVEIK	0.03 nM	0.077 nM	0.052 nM	
69_Lib8_scFv (scFv, VH-linker-VL; not shown: C-terminal 3xFLAG and SV5 tags) scFv: EVQLVESGGGLVQPGRSLRLSCAASAFTFSNYDMHWVRQAPGKGLEWVSAISGSGDTSDYADSVEGRFTISRDNAKNSLYLQMNSLRAEDTAVYYCVRASWYGTFFDYWGQGTLVTVSSSGGSTITSYNVYYTKLSSSGTDIQMTQSPSSLSASVGDRVTITCRASQSVSGWLAWYQQKPGKAPKLLIYGTSTLQSGVPSRFSGSGSGTDFTLTISSLQPEDVATYYCQQSYSAPYTFGGGTKVEIK	0.859 nM	3.7 nM	1.05 nM	
15244_Lib8_scFv (scFv, VH-linker-VL; not shown: C-terminal 3xFLAG and SV5 tags) scFv: EVQLVESGGGLVQPGRSLRLSCAASGFTFADYDMHWVRQAPGKGLEWVSATSSHGVTTDYADSVEGRFTISRDNAKNSLYLQMNSLRAEDTAVYYCARGAWSGIAARQYIDYWGQGTLVTVSSSGGSTITSYNVYYTKLSSSGTDIQMTQSPSSLSASVGDRVTITCRASQTIGYWLAWYQQKPGKAPKLLIYDASVPESGVPSRFSGSGSGTDFTLTISSLQPEDVATYYCQQSYSYPLTFGGGTKVEIK	1.05 nM	3.05 nM	1.91 nM	
Lib1_P1_G3_scFv (scFv, VH-linker-VL; not shown: C-terminal 3xFLAG and SV5 tags) scFv: QVQLVQSGAEVKKPGASVKVSCKVSGYTSRQYIHWVRQAPGKGLEWMGWVTPIFGTTNYAQKFQGRVTMTEDTSTDTAYMELSSLKSEDTAVYYCAREWTGTTAFDIWGQGTLVTVSSSGGSTITSYNVYYTKLSSSGTDIQMTQSPSSVSASVGDRVTITCRASQDIGHYLAWYQQKPGKAPKLLIYAASNRASGVPSRFSGSGSGTDFTLTISSLQPEDFANYYCQQGYSAPYGFGGGTKVEIK	0.029 nM	0.073 nM	0.032 nM	
17561_Lib6_scFv (scFv, VH-linker-VL; not shown: C-terminal 3xFLAG and SV5 tags) scFv: EVQLVQSGAEVKKPGASVKVSCKASGYTFTDLPISWVRQAPGQGLEWMGWINPYTGDTNYAQKLQGRGTMTTDPSTSTAYMELRSLRSDDTAVYYCARDGVILGYYYYYGMDVWGQGTTVTVSSSGGSTITSYNVYYTKLSSSGTESALTQPASVSGSPGQSITISCTGTDLGSKSVSWYQQHPGKAPKLMIYDNFNRPSGVSNRFSGSKSGNTASLTISGLQAEDEADYYCSSRTVSGTYVFGGGTKLTVL	1.79 nM	9.25 nM	5.24 nM	
4675_Lib4_scFv (scFv, VH-linker-VL; not shown: C-terminal 3xFLAG and SV5 tags) scFv: QVQLQESGPGLVKPSQTLSLTCTVSGFSLTSHPEGVNWIRQPPGKGLEWIGYIAHSGTTDYNPSLKSRVTMSVDTSKNQFSLKVNSVTAADTAVYYCARAYGDSDAFDIWGQGTMVTVSSSGGSTITSYNVYYTKLSSSGTEIVMTQSPATLSLSPGERATLSCRASQSIGRNLAWYQQKPGQAPRLLIYGASKRVTGIPARFSGSGSGTDFTLTISSLEPEDFAVYYCQQYSTWPTFGGGTKVEIK	13.6 nM	4.26 nM	2.42 nM	
